Reference: patent publication US20180291335A1, “MODIFIED POLYNUCLEOTIDES FOR ALTERING CELL PHENOTYPE” (ModernaTX, Inc., priority 2012, published 2018)
Values joined by “and” are separate entries in the source; they are usually repeats but may differ in a detail not shown here. Equal values may be shown once.

How the values were obtained:
[1] = system: human embryonic kidney 293 (HEK293) cells; assay: Cytotoxicity of NTPs, CYTO TOX-GLO assay; type: cell-based
Protocol: The cytotoxicity of natural and modified nucleoside triphosphates (NTPs) alone or in combination with other bases, was analyzed in human embryonic kidney 293 (HEK293) cells in the absence of transfection reagent. […] 10 ul of the NTPs outlined in Table 12 were combined with 10 ul of lipid dilution and incubated for 30 minutes to form a complex before 80 ul of the HEK293 cell suspension was added to the NTP complex.
Natural and modified NTPs were transfected at a concentration of 2.1 nM, 21 nM, 210 nM, 2.1 um, 21 uM, 210 um or 2.1 mM. NTPs in combination were transfected at a total concentration of NTPs of 8.4 nM, 84 nM, 840 nM, 8.4 uM, 84 uM, 840 uM and 8.4 mM. […] The cytotoxicity of the NTPs and the modified G-CSF mRNA was assayed at 4, 24, 48 and 72 hours post addition to the HEK293 cells using a CYTO TOX-GLO™ assay from Promega (Madison, Wis.) following the manufacturer protocol except pippeting was used for lysing the cells instead of shaking the plates.

[2] = system: peripheral blood mononuclear cells (PBMC); assay: In vitro screening in PBMC: G-CSF protein expression by ELISA; type: cell-based, human
Outline: (§1)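 Read-out: ELISA of frozen-stored culture supernatants for secreted G-CSF and induced cytokines.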

interferon-alpha (IFN-α) = assay: In vitro screening in PBMC: interferon-alpha induction by ELISA; type: cell-based, human
Outline: as §1

[3] = system: tumor necrosis factor alpha (TNF-α); assay: In vitro screening in PBMC: tumor necrosis factor alpha induction by ELISA; type: cell-based, human
Outline: as §1

HeLa cells [4] = assay: In vitro screening in HeLa cells, luciferase modified RNA; type: cell-based, human; conditions: HeLa cells, 83 ng luciferase modified RNA, 18 to 22 hours
[5] = system: Rabbit Reticulocyte Lysate; assay: In vitro screening in rabbit reticulocyte lysates, luciferase mRNA translation; type: biochemical; conditions: 250 ng luciferase mRNA, 60 minutes, 30° C.
Balb-C mice = assay: In vivo screening of luciferase modified mRNA, whole-body bioluminescence; conditions: subcutaneous, 42 to 103 ug mRNA in 1×PBS, imaged 8 hours after dosing, total flux of entire mouse
Protocol: A control of PBS was also tested. The dosages of the modified luciferase mRNA is also outlined in Table 22. 8 hours after dosing the mice were imaged to determine luciferase expression. Twenty minutes prior to imaging, mice were injected intraperitoneally with a D-luciferin solution at 150 mg/kg. Animals were then anesthetized and images were acquired with an IVIS Lumina II imaging system (Perkin Elmer). Bioluminescence was measured as total flux (photons/second) of the entire mouse.

HeLa cells [6] = assay: G-CSF modified mRNA transfected in HeLa cells, G-CSF ELISA; type: cell-based, human; conditions: HeLa cells, ELISA
Outline: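 G-CSF ELISA readout after 250 ng of chemically modified human G-CSF mRNA (transcribed by mutant T7 polymerase) was added to rabbit reticulocyte lysate or transfected in vitro into HeLa cells.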

rabbit reticulysates = assay: G-CSF modified mRNA in rabbit reticulysates, G-CSF ELISA; type: biochemical; conditions: 250 ng of modified mRNA
Protocol: To assess the activity of all our different chemical modifications in the context of a second open reading frame, we replicated experiments previously conducted using luciferase mRNA, with human G-CSF mRNA. […] The mutant T7 polymerase was obtained commercially (Durascribe® T7 Transcription kit (Cat. No. DS010925) (Epicentre®, Madison, Wis.).
The modified RNA in Tables 27 and 28 were transfected in vitro in HeLa cells or added to rabbit reticulysates (250 ng of modified mRNA) as indicated. […] In Table 27, “NT” means not tested.

[7] = system: interferon-alpha (IFN-alpha); assay: 2′Fluoro chemistries in PBMC: IFN-alpha production by ELISA; type: cell-based, human; conditions: G-CSF modified mRNA
[8] = system: tumor necrosis factor-alpha (TNF-alpha); assay: 2′Fluoro chemistries in PBMC: TNF-alpha production by ELISA; type: cell-based, human; conditions: G-CSF modified mRNA
[9] = PBMC Donor 1, 500 ng G-CSF mRNA
[10] = PBMC Donor 2, 500 ng G-CSF mRNA
[11] = PBMC Donor 3, 500 ng G-CSF mRNA
[12] = PBMC Donor 2, 500 ng G-CSF mRNA, listed as 5-methylcytosine and N1-methylpseudouridine (2nd set)
[13] = PBMC Donor 2, 500 ng G-CSF mRNA, listed as 5-methylcytosine and N1-methylpseudouridine (4th set)
[14] = PBMC Donor 3, 500 ng G-CSF mRNA, listed as 5-methylcytosine and N1-methylpseudouridine (2nd set)
[15] = PBMC Donor 3, 500 ng G-CSF mRNA, listed as 5-methylcytosine and N1-methylpseudouridine (4th set)
[16] = listed as 5-methylcytidien/N1-methylpseudouridine
[17] = listed as 5-methylcytidine/N1-methylpseudouridine

Molecule: O=c1[nH]cc([C@@H]2O[C@H](CO)[C@@H](O)[C@H]2O)c(=O)[nH]1 [Pseudouridine]
- toxicity as compared to the untreated cells [1]: not toxic
- G-CSF Protein Expression [2, 9]: 2477 pg/mL
- G-CSF Protein Expression [2, 10]: 1,909 pg/ml
- G-CSF Protein Expression [2, 11]: 1,498 pg/ml
- IFN-α Expression (interferon-alpha (IFN-α); [9]): 120 pg/mL
- IFN-α Expression (interferon-alpha (IFN-α); [10]): 77 pg/mL
- IFN-α Expression (interferon-alpha (IFN-α); [11]): 171 pg/mL
- cytokine induction (interferon-alpha (IFN-α); PBMC, G-CSF mRNA, result in words): detectable cytokine induction which is above background
- TNF-α Expression [3, 9]: 36 pg/mL
- TNF-α Expression [3, 10]: 81 pg/mL
- TNF-α Expression [3, 11]: 126 pg/mL
- RLU (HeLa cells [4]): 655,632 RLU
- RLU [5]: 587,795 RLU
- Luciferase expression (photon/second) (Balb-C mice): 1.36E+07 photon/second
- G-CSF protein (pg/ml) HeLa cells (HeLa cells [6]; G-CSF mRNA): 1,150,909 pg/ml
- G-CSF protein (pg/ml) Rabbit reticulysates cells (rabbit reticulysates): 147,875 pg/ml

B1: 5-methylcytosine and N1-methyl-pseudouridine (1^st set): G-CSF mRNA (SEQ ID NO: 408) fully modified with 5-methylcytosine and N1-methylpseudouridine; repeated sets/tests (nucleic acid)
chain: GGGAAAUAAGAGAGAAAAGAAGAGUAAGAAGAAAUAUAAGAGCCACCAUGGCCGGUCCCGCGACCCAAAGCCCCAUGAAACUUAUGGCCCUGCAGUUGCUGCUUUGGCACUCGGCCCUCUGGACAGUCCAAGAAGCGACUCCUCUCGGACCUGCCUCAUCGUUGCCGCAGUCAUUCCUUUUGAAGUGUCUGGAGCAGGUGCGAAAGAUUCAGGGCGAUGGAGCCGCACUCCAAGAGAAGCUCUGCGCGACAUACAAACUUUGCCAUCCCGAGGAGCUCGUACUGCUCGGGCACAGCUUGGGGAUUCCCUGGGCUCCUCUCUCGUCCUGUCCGUCGCAGGCUUUGCAGUUGGCAGGGUGCCUUUCCCAGCUCCACUCCGGUUUGUUCUUGUAUCAGGGACUGCUGCAAGCCCUUGAGGGAAUCUCGCCAGAAUUGGGCCCGACGCUGGACACGUUGCAGCUCGACGUGGCGGAUUUCGCAACAACCAUCUGGCAGCAGAUGGAGGAACUGGGGAUGGCACCCGCGCUGCAGCCCACGCAGGGGGCAAUGCCGGCCUUUGCGUCCGCGUUUCAGCGCAGGGCGGGUGGAGUCCUCGUAGCGAGCCACCUUCAAUCAUUUUUGGAAGUCUCGUACCGGGUGCUGAGACAUCUUGCGCAGCCGUGAAGCGCUGCCUUCUGCGGGGCUUGCCUUCUGGCCAUGCCCUUCUUCUCUCCCUUGCACCUGUACCUCUUGGUCUUUGAAUAAAGCCUGAGUAGGAAG
modifications: 5-methylcytosine/N1-methylpseudouridine modified; Description of Artificial Sequence: Synthetic Transcript Sequence
notes: repeated sets/tests
- G-CSF Protein Expression [2, 9]: 10,232 pg/ml
- G-CSF Protein Expression ([2]; PBMC Donor 1, 500 ng G-CSF mRNA, listed as 5-methylcytosine and N1-methyl-pseudouridine (2nd set)): 9,564 pg/ml
- G-CSF Protein Expression ([2]; PBMC Donor 1, 500 ng G-CSF mRNA, listed as 5-methylcytosine and N1-methyl-pseudouridine (4th set)): 9,505 pg/ml
- G-CSF Protein Expression [2, 10]: 7,245 pg/ml
- G-CSF Protein Expression ([2]; PBMC Donor 2, 500 ng G-CSF mRNA, listed as 5-methylcytosine and N1-methyl-pseudouridine (2nd set)): 8,509 pg/ml
- G-CSF Protein Expression ([2]; PBMC Donor 2, 500 ng G-CSF mRNA, listed as 5-methylcytosine and N1-methyl-pseudouridine (4th set)): 6,927 pg/ml
- G-CSF Protein Expression [2, 11]: 6,214 pg/ml
- G-CSF Protein Expression ([2]; PBMC Donor 3, 500 ng G-CSF mRNA, listed as 5-methylcytosine and N1-methyl-pseudouridine (2nd set)): 7,141 pg/ml
- G-CSF Protein Expression ([2]; PBMC Donor 3, 500 ng G-CSF mRNA, listed as 5-methylcytosine and N1-methyl-pseudouridine (4th set)): 5,405 pg/ml
- IFN-α Expression (interferon-alpha (IFN-α); [9]): 0 pg/mL
- IFN-α Expression (interferon-alpha (IFN-α); [10]): 60 pg/mL
- IFN-α Expression (interferon-alpha (IFN-α); [12]): 66 pg/mL
- IFN-α Expression (interferon-alpha (IFN-α); [13]): 0 pg/mL
- IFN-α Expression (interferon-alpha (IFN-α); [11]): 136 pg/mL
- IFN-α Expression (interferon-alpha (IFN-α); [14]): 140 pg/mL
- IFN-α Expression (interferon-alpha (IFN-α); [15]): 0 pg/mL
- TNF-α Expression [3, 9]: 54 pg/mL
- TNF-α Expression ([3]; PBMC Donor 1, 500 ng G-CSF mRNA, listed as 5-methylcytosine and N1-methylpseudouridine (2nd set)): 54 pg/mL
- TNF-α Expression ([3]; PBMC Donor 1, 500 ng G-CSF mRNA, listed as 5-methylcytosine and N1-methylpseudouridine (4th set)): 36 pg/mL
- TNF-α Expression [3, 10]: 79 pg/mL
- TNF-α Expression [3, 12]: 97 pg/mL
- TNF-α Expression [3, 13]: 14 pg/mL
- TNF-α Expression [3, 11]: 126 pg/mL
- TNF-α Expression [3, 14]: 149 pg/mL
- TNF-α Expression [3, 15]: 13 pg/mL
- G-CSF protein (pg/ml) HeLa cells (HeLa cells [6]; G-CSF mRNA, listed as 5-methylcytosine/N1-methylpseudouridine, Control): 1,106,591 pg/ml
- G-CSF protein (pg/ml) HeLa cells (HeLa cells [6]; G-CSF mRNA, listed as 5-methylcytosine/N1-methylpseudouridine, Test A): 1,534,318 pg/ml
- G-CSF protein (pg/ml) HeLa cells (HeLa cells [6]; G-CSF mRNA, listed as 5-methylcytosine/N1-methylpseudouridine, Test B): 1,568,636 pg/ml
- G-CSF protein (pg/ml) HeLa cells (HeLa cells [6]; G-CSF mRNA, listed as 5-methylcytosine/N1-methylpseudouridine, Test D): 1,168,864 pg/ml
- G-CSF protein (pg/ml) HeLa cells (HeLa cells [6]; combination chemistries, listed as 5-methylcytidine/N1-methylpseudouridine): 747,045 pg/ml and 689,091 pg/ml
- G-CSF protein (pg/ml) HeLa cells (HeLa cells [6]; combination chemistries, listed as 5-methylcytosine/N1-methylpseudouridine): 1,017,727 pg/ml
- G-CSF protein (pg/ml) HeLa cells (HeLa cells [6]; combination chemistries, listed as 5-methylcytosine/N1-methylpseudouridine, Control 1): 848,409 pg/ml
- G-CSF protein (pg/ml) HeLa cells (HeLa cells [6]; combination chemistries, listed as 5-methylcytosine/N1-methylpseudouridine, Control 2): 581,818 pg/ml
- G-CSF protein (pg/ml) Rabbit reticulysates cells (rabbit reticulysates; listed as 5-methylcytosine/N1-methylpseudouridine, Test A): 110,500 pg/ml
- G-CSF protein (pg/ml) Rabbit reticulysates cells (rabbit reticulysates; listed as 5-methylcytosine/N1-methylpseudouridine, Test B): 76,750 pg/ml
- G-CSF protein (pg/ml) Rabbit reticulysates cells (rabbit reticulysates; listed as 5-methylcytosine/N1-methylpseudouridine, Test D): 97,125 pg/ml
- IFN-alpha: 3 Donor Average [7, 16]: 35 pg/mL
- IFN-alpha: 3 Donor Average [7, 17]: 31 pg/mL
- TNF-alpha: 2 Donor Average [8, 16]: 3 pg/mL
- TNF-alpha: 2 Donor Average [8, 17]: 280 pg/mL
